Measurements as given in patent US20180057604A1 (Genentech, published 2018).
Substitutions are numbered along the chain they refer to. In names and notes the source's numbering stands. Several values for one entry are separate records, joined by “and”; a condition that tells them apart may be missing. Equal values may be shown once. Read-outs that look alike come from different tables or passages of the source.

Columns and labels:
[1] = biological target: T1, human TfR extracellular domain with N-terminal His tag (human, UniProt P02786 89-760); assay: SPR, TfR captured by anti-His, Fab injected;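 on KD: single cycle kinetics with a Fab dilution series, fitted by a one-to-one Langmuir model or a steady state model, KD taken as koff over kon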
T1 construct: Biotinylated in some assays; also called huTfR; HuTfR
Method: (§1) Antibody affinities were measured using surface plasmon resonance (“SPR”) (Biacore™, GE Healthcare). Anti-His antibody (Qiagen) was coupled onto four different flow cells of a BIACORE™ CM5 sensor chip (Biacore, Inc., Piscataway, N.J.) at between 6000 and 8000 RU. Immobilization was achieved by random coupling through amino groups using a protocol provided by the manufacturer. 10×HBS-P (Biacore, Inc., Piscataway, N.J.) was diluted in water and served as the dilution and running buffer. Purified human or cyno TfR was captured, followed by a 3-fold dilution series of IgG or Fab that was injected at a flow rate of 30 ml/min using the single cycle kinetics method. Affinity constants were determined using a simple 1:1 Langmuir binding model or using a steady state model when kₒₙ or koff was beyond the detection limit. The equilibrium dissociation constant (KD) was calculated as the ratio of association rate constant (kₒₙ) and dissociation rate constant (koff).

[2] = biological target: T2, cyno TfR extracellular domain (analogous construct to human TfR ecd) (cynomolgus monkey, UniProt Q5RDH6 87-760 (Pongo abelii entry)); assay: SPR, TfR captured by anti-His, Fab injected;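 on KD: single cycle kinetics with a Fab dilution series, fitted by a one-to-one Langmuir model or a steady state model, KD taken as koff over kon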
T2 construct: also called cynoTfR ecd
T2 chain: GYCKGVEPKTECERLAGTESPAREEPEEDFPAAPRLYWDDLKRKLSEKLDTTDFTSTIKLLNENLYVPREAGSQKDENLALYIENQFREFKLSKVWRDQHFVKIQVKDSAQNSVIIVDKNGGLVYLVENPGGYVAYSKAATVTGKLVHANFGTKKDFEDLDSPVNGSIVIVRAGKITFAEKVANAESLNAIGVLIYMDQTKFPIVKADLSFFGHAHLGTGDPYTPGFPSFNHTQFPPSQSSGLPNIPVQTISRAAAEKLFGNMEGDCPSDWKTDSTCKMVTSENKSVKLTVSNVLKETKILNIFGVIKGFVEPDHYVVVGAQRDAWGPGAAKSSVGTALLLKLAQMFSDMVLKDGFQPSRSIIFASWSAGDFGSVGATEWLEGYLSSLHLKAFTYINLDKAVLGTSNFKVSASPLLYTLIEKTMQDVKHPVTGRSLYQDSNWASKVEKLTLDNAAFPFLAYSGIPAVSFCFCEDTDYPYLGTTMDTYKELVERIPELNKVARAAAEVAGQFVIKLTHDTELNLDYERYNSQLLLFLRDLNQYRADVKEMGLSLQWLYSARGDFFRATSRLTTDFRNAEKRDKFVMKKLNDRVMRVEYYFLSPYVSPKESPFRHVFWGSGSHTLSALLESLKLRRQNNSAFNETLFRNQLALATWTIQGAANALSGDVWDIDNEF
Method: as §1

[3] = biological target: T1, human TfR extracellular domain with …; assay: SPR, Fab
Target sequence in this assay (P02786 89-760 G142S): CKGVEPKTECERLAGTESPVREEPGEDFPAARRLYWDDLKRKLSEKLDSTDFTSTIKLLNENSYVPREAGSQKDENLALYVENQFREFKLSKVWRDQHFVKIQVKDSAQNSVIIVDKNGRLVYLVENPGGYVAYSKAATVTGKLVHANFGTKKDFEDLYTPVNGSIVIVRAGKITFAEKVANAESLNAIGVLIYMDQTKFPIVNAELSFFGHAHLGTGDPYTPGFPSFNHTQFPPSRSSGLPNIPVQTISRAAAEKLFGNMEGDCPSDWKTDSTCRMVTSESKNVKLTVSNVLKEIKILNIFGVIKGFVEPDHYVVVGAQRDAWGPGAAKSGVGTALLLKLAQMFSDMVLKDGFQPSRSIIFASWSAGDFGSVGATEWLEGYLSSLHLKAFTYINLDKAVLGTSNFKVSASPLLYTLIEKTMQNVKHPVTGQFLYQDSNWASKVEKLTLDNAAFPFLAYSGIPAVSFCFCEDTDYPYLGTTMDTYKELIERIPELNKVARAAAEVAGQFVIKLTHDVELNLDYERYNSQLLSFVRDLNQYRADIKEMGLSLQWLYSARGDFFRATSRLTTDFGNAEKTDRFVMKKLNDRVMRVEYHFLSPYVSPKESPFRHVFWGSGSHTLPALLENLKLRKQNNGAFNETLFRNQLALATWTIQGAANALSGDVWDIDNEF
Method: as §1
(§2) These variants were screened as IgG by ELISA and SPR to identify positions important for binding to human and cyno TfR; the monovalent affinity of selected variants as Fab was also determined. […] Plates were washed with PBS/0.05% Tween 20 and blocked using Superblock blocking buffer in PBS (Thermo Scientific, Hudson, N.H.). Supernatants containing expressed IgG were diluted serially 1:5 and added to the plate for 1 h. […] Plates were washed with PBS/0.05% Tween 20 and 1:1000 diluted HRP-Goat-anti kappa (Southern Biotech) was added the plate and incubated for 1 h at room temperature. Plates were washed with PBS/0.05% Tween 20 and detected using TMB substrate (BioFX Laboratories, Owings Mills). Binding was also assessed by SPR, as described above.

[4] = biological target: T2, cyno TfR extracellular domain …; assay: SPR, Fab
Method: as §1, §2

[5] = biological target: T2, cyno TfR extracellular domain …; assay: SPR, KD on cyno TfR over KD on human TfR
Method: as §1
(§3) In both cases, the SPR experiments were performed as described above.

[6] = biological target: T2, cyno TfR extracellular domain …; assay: SPR, KD on cyno TfR over KD on human TfR
Method: as §1, §3

[7] = biological target: T1, human TfR extracellular domain with …; assay: SPR, TfR captured by anti-His, Fab injected; remark: listed apart in the source;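 on KD: single cycle kinetics with a Fab dilution series, fitted by a one-to-one Langmuir model or a steady state model, KD taken as koff over kon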
[8] = biological target: T2, cyno TfR extracellular domain …; assay: SPR, TfR captured by anti-His, Fab injected;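 on KD: single cycle kinetics with a Fab dilution series, fitted by a one-to-one Langmuir model or a steady state model, KD taken as koff over kon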
[9] = biological target: T1, human TfR extracellular domain with …; assay: SPR, TfR captured by anti-His, Fab injected; remark: listed apart in the source
Target sequence in this assay (P02786 89-760 G142S): as above
Method: as §1, §3

[10] = biological target: T2, cyno TfR extracellular domain …; assay: SPR, TfR captured by anti-His, Fab injected
Method: as §1, §3

[11] = biological target: T2, cyno TfR extracellular domain …; assay: SPR, KD on cyno TfR over KD on human TfR
[12] = biological target: TfR (species not stated, Table 15); assay: SPR, Fab
[13] = biological target: T1, human TfR extracellular domain with …; assay: SPR SCK 1:1 fit, IgG
Target sequence in this assay (P02786 89-760 G142S): as above
Method: as §1, §2

[14] = biological target: T2, cyno TfR extracellular domain …; assay: SPR SCK 1:1 fit, IgG
Method: as §1, §2

[15] = biological target: T1, human TfR extracellular domain with …; assay: ELISA, TfR-coated plate, IgG
Method: (§4) The Hu/Cy binding ELISA was performed in maxisorp plates coated with 2 μg/ml of purified human or cyno TfR in PBS at 4° C. overnight. Plates were washed with PBS/0.05% Tween 20 and blocked using Superblock blocking buffer in PBS (Thermo Scientific, Hudson, N.H.). Cell culture supernatants containing the expressed Ala scan variant IgGs were serially diluted 1:5 and added to the wells for 1 h. Plates were washed with PBS/0.05% Tween 20 and 1:1000 diluted HRP-Goat-anti human Fcγ (Jackson ImmunoResearch) was added the plate and incubated for 1 hour at room temperature. Plates were washed with PBS/0.05% Tween 20 and detected using TMB substrate (BioFX Laboratories, Owings Mills).

[16] = biological target: T2, cyno TfR extracellular domain …; assay: ELISA, TfR-coated plate, IgG
Method: as §4

[17] = biological target: T1, human TfR extracellular domain with …; assay: SPR, IgG;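 further: His-tagged TfR captured via immobilized anti-His antibody on a CM5 chip, antibody injected in 3-fold dilution series by single cycle kinetics, 1:1 Langmuir or steady-state fit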
Target sequence in this assay (P02786 89-760 G142S): as above
Method: as §1, §3

[18] = biological target: T2, cyno TfR extracellular domain …; assay: SPR, IgG;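 further: His-tagged TfR captured via immobilized anti-His antibody on a CM5 chip, antibody injected in 3-fold dilution series by single cycle kinetics, 1:1 Langmuir or steady-state fit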
Method: as §1, §3

[19] = biological target: T1, human TfR extracellular domain with …; assay: ELISA, IgG
Target sequence in this assay (P02786 89-760 G142S): as above
Method: (§5) Affinity variants were generated by making individual alanine substitutions in CDR-L3 or CDR-H3 using standard techniques. These variants were screened as IgG by ELISA and SPR to identify positions important for binding to human and cyno TfR; the monovalent affinity of selected variants as Fab was also determined. […] Plates were washed with PBS/0.05% Tween 20 and blocked using Superblock blocking buffer in PBS (Thermo Scientific, Hudson, N.H.). Supernatants containing expressed IgG were diluted serially 1:5 and added to the plate for 1 h. […] Plates were washed with PBS/0.05% Tween 20 and 1:1000 diluted HRP-Goat-anti kappa (Southern Biotech) was added the plate and incubated for 1 h at room temperature. Plates were washed with PBS/0.05% Tween 20 and detected using TMB substrate (BioFX Laboratories, Owings Mills).

[20] = biological target: T2, cyno TfR extracellular domain …; assay: ELISA, IgG
Method: as §5

[21] = biological target: T1, human TfR extracellular domain with …; assay: ELISA, immobilized huTfR, with and without 6.3 uM holo-Tf
Method: Plates were washed with PBS/0.05% Tween 20 and blocked using Superblock blocking buffer in PBS (Thermo Scientific, Hudson, N.H.). […] Plates were washed with PBS/0.05% Tween 20 and 1:1000 diluted HRP-Goat-anti human Fcγ (Jackson ImmunoResearch) was added to the plate and incubated for 1 h at room temperature. Plates were washed with PBS/0.05% Tween 20 and detected using TMB substrate (BioFX Laboratories, Owings Mills).

[22] = biological target: T1, human TfR extracellular domain with …; assay: SPR, biotinylated TfR on streptavidin, bispecific injected
Method: (§6) Affinity of the bispecific antibodies for human and cynomolgus monkey TfR was determined using surface plasmon resonance (SPR) (Biacore™, GE Healthcare). Streptavidin (Sigma) was coupled onto four different flow cells of a series S BIACORE™ CM5 sensor chip (Biacore, Inc., Piscataway, N.J.) at between 2000 and 3000 RU. Immobilization was achieved by random coupling through amino groups using a protocol provided by the manufacturer. 10×HBS-P (Biacore, Inc., Piscataway, N.J.) was diluted in water and served as the dilution and running buffer. Purified and biotin labeled human or cyno TfR was captured, followed by a 3-fold dilution series of bispecific antibody that was injected at a flow rate of 30 ml/min using the single cycle kinetics method. Affinity constants were determined using a simple 1:1 Langmuir binding model or using a steady state model when kₒₙ or koff was beyond the detection limit. The equilibrium dissociation constant (KD) was calculated as the ratio of association rate constant (kon) and dissociation rate constant (koff).

[23] = biological target: T2, cyno TfR extracellular domain …; assay: as above
Method: as §6

B1: Hu15G11.v5.Fab (Fab, V domains shown)
VH: EVQLVQSGAEVKKPGASVKVSCKASGYTFTSYWMHWVRQAPGQRLEWIGEINPTNGRTNYIEKFKSRATLTVDKSASTAYMELSSLRSEDTAVYYCARGTRAYHYWGQGTMVTVSS
VL: DIQMTQSPSSLSASVGDRVTITCRASDNLYSNLAWYQQKPGKSPKLLVYDATNLADGVPSRFSGSGSGTDYTLTISSLQPEDFATYYCQHFWGTPLTFGQGTKVEIK
notes: Fab
Q: B1 was tested. Which koff [1] did it give?
A: 0.00474 s⁻¹

Q: What about the kon [1] of the same binder?
A: 674000 M⁻¹ s⁻¹

Q: And the koff [2]?
A: 0.0127 s⁻¹

Q: What about the kon [2] of the same binder?
A: 451000 M⁻¹ s⁻¹

Q: And the Kd [3]?
A: 4.7 nM

Q: And the Kd [4]?
A: 16 nM

Q: What about the Cy/hu ratio [5] of the same binder?
A: 4

Q: What about the Cy/hu ratio [6] of the same binder?
A: 3.4

Q: And the Kd [7]?
A: 4.7 nM

Q: What about the koff [7] of the same binder?
A: 0.00406 s⁻¹ and 0.00364 s⁻¹

Q: And the kon [7]?
A: 456000 M⁻¹ s⁻¹ and 776000 M⁻¹ s⁻¹

Q: And the koff [8]?
A: 0.0218 s⁻¹

Q: And the kon [8]?
A: 1.41e+06 M⁻¹ s⁻¹

Q: And the koff [9]?
A: 0.00474 s⁻¹

Q: And the kon [9]?
A: 674000 M⁻¹ s⁻¹

Q: What about the koff [10] of the same binder?
A: 0.0127 s⁻¹

Q: And the kon [10]?
A: 451000 M⁻¹ s⁻¹

Q: And the Cyno/human ratio [11]?
A: 4

B2: Hu15G11.HC52A Fab (Fab, V domains shown)
VH: B1 VH with N52A
VL: B1 VL
notes: Fab; also called antiTfR.52A.Fab; 15G11.52A Fab
Q: Which Kd [12] does the source give for B2 here?
A: 55 nM

B3: hu15G11.v5 IgG (antibody, V domains shown)
VH: B1 VH
VL: B1 VL
notes: Human IgG (detected with anti-human Fc gamma); also called humanized 15G11.v5
Q: Which results are given for B3?
A: Kd [13]: 3.3 nM; Kd [14]: 12 nM; EC50 [15]: 0.8 ng/mL; EC50 [16]: 1.8 ng/mL; Kd [17]: 3.33 nM; Kd [18]: 11.8 nM; EC50 [19]: 16 ng/mL; EC50 [20]: 20 ng/mL; EC50 (read off the curve) [21]: ~5 ng/mL

B4: Anti-TfR1/6266.hIgG1.N297G (bispecific antibody, V domains shown)
VH 1: B1 VH
VL 1: B1 VL
VH 2: EVQLVQSGAEVKKPGSSVKVSCKASGGTLSGYGVSWVRQAPGQGLEWMGNIIPGFGTANYAQKFQGRVTITADESTSTAYMELSSLRSEDTAVYYCARSGGTKYGMLDVWGQGTMVTVSS
VL 2: EIVMTQSPATLSVSPGERATLSCRASQSVSSNLAWYQQKPGQAPRLLIYGASTRATGIPARFSGSGSGTEFTLTISSLQSEDFAVYYCQQLILWPPRTFGGGTKVEIK
notes: Knob-in-hole human IgG1 with N297G
Q: For B4, which Kd [22] is on record?
A: 9 nM

Q: And the Kd [23]?
A: 23.7 nM
